Assay results from patent US20250147051A1 (GTINVENT, published 2025).
Numbering of substitutions follows the chain as printed. Read-outs that look alike come from different tables or passages of the source.

Experiments:
[1] = molecular target: T1, full length human tau protein 2N4R (hT40) (human, UniProt P10636 1-758); assay: direct ELISA, coated hT40
T1 construct: recombinant protein; also called T441

[2] = molecular target: T1, full length human tau protein 2N4R …; assay: direct ELISA, coated hT40; remark: listed apart in the source
[3] = molecular target: T1, full length human tau protein 2N4R …; assay: sandwich ELISA, S1D12 mAb capture, chemiluminescence detection
Procedure: (§1) Full length tau (hT40), at 1 μg/ml starting concentration was added to designated wells and double diluted across rest of the plates and left to incubate at R/T for 1 h. A series of detection scAbs with varying epitope recognition properties were added at 10 μg/ml to designated wells (FIG. 22). For colourimetric detection HRP conjugated anti-HuCk secondary antibody was used and the resulting immunoreaction was developed and absorbance at 450 nm measured as described previously. Cut-off point for a positive binding event was an absorbance value of 0.3 following background subtraction. In order to enhance the assay sensitivity, a chemiluminescent detection method was adopted where 50 μL SuperSignal ELISA Femto Substrate (Thermo Scientific) was added to each well following incubation with anti-HuCK HRP antibody and subsequent washing. The luminescence was read using Clariostar Plus microplate reader. A further modification to this protocol was done where various detection scAbs were directly conjugated with HRP and detected using chemiluminescent protocol as before.

[4] = molecular target: T1, full length human tau protein 2N4R …; assay: sandwich ELISA, S1D12 mAb capture, colourimetric detection
Procedure: as §1

DGAE + LMT Agg [5] = molecular target: T2, DGAE + LMT Agg; assay: sandwich ELISA, 423 mAb capture, dGAE species titrated, scAb detection at 10 ug/ml [D00039 Figure 34F]
T2 construct: also called dGAE agitated in the presence of LMTM (Total, Supernatant, Pellet)
T2 sequence (fragment, as listed by the source limits assumed): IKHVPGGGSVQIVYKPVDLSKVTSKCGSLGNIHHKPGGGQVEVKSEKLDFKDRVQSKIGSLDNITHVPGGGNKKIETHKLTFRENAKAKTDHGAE
Procedure: (§2) For preparing the aggregates, 10 μl 10 mM DTT was added to 1000 μl 100 μM dGAE and agitated with/without LMTM (1:5 ratio) at 700 rpm for 24 h at 37° C. Following overnight agitation, one third of each sample was kept aside as ‘total’ and the rest was spun down at 16000×g for 30 min and separated into ‘supernatant’ and ‘pellet’. The pellet was then resuspended in half the original volume for further experiments. […] Doubling dilutions of dGAE aggregate ‘total’, ‘supernatant’ and ‘pellet’ samples at 10 μg/ml starting concentration were added to designated wells in doubling dilutions in 1×PBS. dGAE monomer (non-aggregated) was included as assay control. All double dilutions were done in final volumes of 100 μl. This was left to incubate on lab bench for 1 h followed by the addition of test scAbs at 10 μg/ml.

DGAE + LMT Agg [6] = molecular target: T2, DGAE + LMT Agg; assay: sandwich ELISA, 423 mAb capture, dGAE species titrated, scAb detection at 10 ug/ml [D00041 Figure 34O]
Procedure: as §2

[7] = molecular target: T3, mouse tau (Isoform Tau-A) (mouse, UniProt P10637 2-733); assay: Western blot of brain homogenates
T3 construct: endogenous protein in mouse brain homogenate or plasma; isoform in the samples not determined; also called endogenous mouse tau
T3 sequence (P10637 other isoform, or with tags, fused parts or gaps limits assumed): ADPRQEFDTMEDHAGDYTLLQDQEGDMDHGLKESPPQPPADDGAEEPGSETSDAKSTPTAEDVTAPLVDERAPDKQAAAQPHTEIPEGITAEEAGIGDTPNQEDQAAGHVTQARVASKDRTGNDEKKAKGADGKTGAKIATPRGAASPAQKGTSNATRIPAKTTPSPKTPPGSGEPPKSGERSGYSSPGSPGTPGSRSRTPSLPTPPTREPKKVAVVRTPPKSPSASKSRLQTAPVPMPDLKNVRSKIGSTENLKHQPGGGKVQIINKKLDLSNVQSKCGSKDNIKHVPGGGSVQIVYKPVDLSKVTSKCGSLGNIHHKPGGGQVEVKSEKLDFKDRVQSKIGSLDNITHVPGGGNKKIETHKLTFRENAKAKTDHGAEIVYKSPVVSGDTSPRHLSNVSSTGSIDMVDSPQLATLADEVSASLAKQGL

[8] = molecular target: T4, human tau 296-390 (Line 1 transgene fragment) (human, UniProt P10636 613-707); assay: Western blot of brain homogenates
T4 construct: also called L1 fragment; 10-kDa tau fragment
T4 sequence (P10636 613-707): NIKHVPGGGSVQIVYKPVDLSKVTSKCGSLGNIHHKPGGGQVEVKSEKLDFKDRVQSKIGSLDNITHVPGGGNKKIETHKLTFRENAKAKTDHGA

T1 sequence (P10636 other isoform, or with tags, fused parts or gaps limits assumed): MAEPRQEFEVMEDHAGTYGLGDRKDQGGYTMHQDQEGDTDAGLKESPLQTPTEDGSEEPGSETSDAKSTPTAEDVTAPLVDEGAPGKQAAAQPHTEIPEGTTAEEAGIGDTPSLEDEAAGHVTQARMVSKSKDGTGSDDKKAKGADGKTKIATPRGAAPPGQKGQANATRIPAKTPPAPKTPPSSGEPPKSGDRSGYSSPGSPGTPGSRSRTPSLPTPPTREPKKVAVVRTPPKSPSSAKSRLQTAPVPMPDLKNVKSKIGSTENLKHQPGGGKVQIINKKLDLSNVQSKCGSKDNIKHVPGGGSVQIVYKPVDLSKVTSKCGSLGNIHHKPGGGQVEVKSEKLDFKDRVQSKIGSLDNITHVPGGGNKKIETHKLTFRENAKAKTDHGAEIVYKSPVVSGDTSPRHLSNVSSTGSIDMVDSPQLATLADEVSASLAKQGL

B1: CB3 scAb (scFv)
scFv: QVQLQESGPSLVKPSQTLSLTCTVSGFSLSSVAVNWVRQAPGKVPEWLGGIISNGGTGYNPALKSRLSITRDTSKSQVSLALTHVTTEDTAVYYCGRGVEWEGSMDYLGPGLLVTVSSEGKSSGSGSETKVDDQSVLTQPSSVSGFLGQRVTITCSGSSSNVGAGSYVGWYQQVPGSGLRILIYGATKRASGLPDRFSGSRSGNTATLTISSLQAEDEADYYCVSYQTDFTLVFGSGTRLTVLG
notes: scAb (scFv-HuCk-His)
- EC50 (read off the curve) [1]: ~0.1 µg/mL

B2: 412G11 (scFv)
scAb: QVRLQESGPSLVKPSQTLSLTCTVSGFSLTSYALGWVRQAPGRAPEWIGNIWRGGRIEYNPALKSRLSITRDTSKSQVSLSLSSVTTEDTAVYYCSRSGGDWGPGLLVTVSSEGKSSGASGESKVDDQAVLTQPSSVSGSLGQRVSITCSGSSSNVGYGNYVGWYQQVPGSAPKLLIYGATSRASGVPDRFSGSRSENTATLTISSLQAEDEADYYCASYDRSESVVFGSGTRLTVLG
- EC50 (read off the curve) [2]: ~6 µg/mL

B3: S1G10 scAb (scFv)
scFv: QVQLQESGPSLVKPSQTLSLTCTVSGFSLTSNSVGWVRQAPGKAPEWVAGIDTDGEEGYNPALNSRLSITRDTSKSQVSLSLSSVTSEDTAVYYCGRSYRADGLAYGYVQAIDYWGPGLLVTVSSEGKSSGASGESKVDDQAVLTQPSSMSGSLGQRVSITCSGSFIGISSVGWFQQLPGSGLRTIIVASDGRPSGVPDRFSMSKSGNTATLTISSLQAEDEADYFCGSSDRTQYTGVFGSGTRLTVLG
notes: scAb (scFv-HuCk-His)
- LoD [3]: 0.12 ng/mL
- LoD [4]: 2 ng/mL

B4: CA9 scAb (scFv)
scFv: B3 scFv with A101S, S148A, M150V
notes: scAb (scFv-HuCk-His)
- binding result (DGAE + LMT Agg [5]): binds

B5: S1G2 scAb (scFv)
scFv: B3 scFv with L144V, M150V, Q234P
notes: scAb (scFv-HuCk-His)
- LoD [3]: 0.12 ng/mL

B6: CE3 scAb (scFv)
scFv: QVRLQESGPSLVKPSQTLSVTCTVSGFSLISNAVGWVRQAPGKVPESLAGCSSDGKCYYNSALKSRLDITRDTSKNQISLSLSSVTTDDAAVYYCTRGYYPVYGYDYLGTIDYWGPGLLVTVSSEGKSSGASGESKVDDQAVLTQPSSVSGSLGQRVSITCSGSSSNVGRNDVAWFQQLPGSGLRTIIYGTTSRPSGIPDRFSGSKSGVTATLTIDSLQAEDEADYFCASGDSSAINDIFGSGTRLTVLG
notes: scAb (scFv-HuCk-His)
- binding result (DGAE + LMT Agg [6]): binds

B7: CB7 scAb (scFv)
scFv: QVQLQESGPSLVKPSQTLSLTCTVSGFSLTNYRVGWVRQAPGKALEWVSNIRSGGTTWYNPALKSRLSITADTSKSQVSLSLSSVTTEDTAVYYCARDSSGDLYAYDYWGPGLLVTVSSEGKSSGASGESKVDDQAVLTQPSSVSRSLGQSVSMTCSGSSSNVGYGNYMAWFQQVPGSAPKLLIYGATSRASGVPDRFSGSRSGNTATLTISSLQAEDEADYYCASYDSTSGGVFGSGTRLTVLG
notes: scAb (scFv-HuCk-His)
- LoD [3]: 3.33 ng/mL
- LoD [4]: 15 ng/mL

B8: CC7 scAb (scFv)
scFv: QVQLQESGPSLVKPSQTLSLTCTVSGFSLTSNAVIWVRQAPGKAPEWVALIDVDGDAAYDPALKSRLSITRDTSKSQVSLSLRSVTTEDTAVYYCARDYGSWGYVSDIDYWGPGLLVTVSSEGKSSGASGESKVDDRVVRTQPSSVSGSLGQRVSITCSGSYITGSSVGWFQQVPGSGLKTVIYDNNDRPSGVPDRFSGSKSGDTATLTISSLQAEDEADYYCASYDTSNIGLFGSGTRLTVLG
notes: scAb (scFv-HuCk-His)
- LoD [3]: 3.33 ng/mL
- LoD [4]: 6 ng/mL

B9: CA4 scAb (scFv)
scFv: QVQLQESGPSLVKPSQTLSLTCTVSGFSLTSYSVYWVRQAPGQALEWISIMYASGRVDYNPALKSRLSITRDTSKSQFSLSLSSVTTEDTAVYYCTRGIENWGPGLLVTVSSEGKSSGASGESKVDDDIQVTQSPSSLSASLTERVSITCRTSQSVNNYLSWYQQKPGQAPKLLIYYATRLYTDVPSRFSGSGSGTDYTLTITSLEADDTATYYCLQYDSTPLAFGGGTNVEIK
notes: scAb (scFv-HuCk-His)
- LoD [3]: 0.37 ng/mL
- LoD [4]: 6 ng/mL

B10: 412E10 scAb (scFv)
scFv: QVQLQESGPSLVKPSQTLSLTCTVSGFSVISDSVAWVRQAPGKVPEWLGASGSSGNKYYNPALKSRLSITRDTSKSQVSLSLSSVTTEDTAVYYCARGIIAGVDVWGRGLLVTVSSEGKSSGASGESKVDDQAVLTQPSSVSGSLGQRVSITCSGSSSNVGYGNYVGWYQQVPGSAPKLLIYGTAIRASGVPDRFSGSRSGDTATLTITSLQAEDEADYYCASYQSNYAFFGSGTRLTVLG
notes: scAb (scFv-HuCk-His)
- LoD [3]: 0.37 ng/mL
- LoD [4]: 20 ng/mL

B11: CB7 mAb (antibody, mouse IgG2a, V domains shown)
VH: QVQLQESGPSLVKPSQTLSLTCTVSGFSLTNYRVGWVRQAPGKALEWVSNIRSGGTTWYNPALKSRLSITADTSKSQVSLSLSSVTTEDTAVYYCARDSSGDLYAYDYWGPGLLVTVSS
VL: QAVLTQPSSVSRSLGQSVSMTCSGSSSNVGYGNYMAWFQQVPGSAPKLLIYGATSRASGVPDRFSGSRSGNTATLTISSLQAEDEADYYCASYDSTSGGVFGSGTRLTVLG
notes: also called CB7 antibody
- binding result [7]: no binding (tested: 20 µg brain protein)
- binding result [8]: no binding (tested: 20 µg brain protein)

B12: CC7 mAb (antibody, mouse IgG2a, V domains shown)
VH: QVQLQESGPSLVKPSQTLSLTCTVSGFSLTSNAVIWVRQAPGKAPEWVALIDVDGDAAYDPALKSRLSITRDTSKSQVSLSLRSVTTEDTAVYYCARDYGSWGYVSDIDYWGPGLLVTVSS
VL: RVVRTQPSSVSGSLGQRVSITCSGSYITGSSVGWFQQVPGSGLKTVIYDNNDRPSGVPDRFSGSKSGDTATLTISSLQAEDEADYYCASYDTSNIGLFGSGTRLTVLG
notes: also called CC7 antibody
- binding result [7]: no binding (tested: 20 µg brain protein)
- binding result [8]: no binding (tested: 20 µg brain protein)
